Reference: patent US20230374148A1, “BINDING MOLECULES THAT MULTIMERISE CD45” (UCB BIOPHARMA SRL, priority 2020, published 2023)

How the values were obtained:
Type in all cases: cell-based
Human whole blood = assay: Cytokine release in whole blood at 24 hrs, Luminex bead assay
Protocol: Human whole blood (Lithium heparin tubes) was taken from two donors (HTA #300120-1 & #300120-2) at UCB Pharma Slough, UK according to approved ethical sample collection protocol.
In a Greiner 96-well non-binding microplate, stocks of 4133-6294 BYbe and negative control BYbe (NegCtrl BYbe), with antigen-irrelevant specificity in both the Fab and scFv positions, were prepared in PBS at 5000 nM. The BYbe reagents were then serially diluted in PBS 1 in 5, three times to produce to form a 4-point dose curve. 12.5 μl of BYbe dilution was transferred into Corning Costar 96-well, cell culture treated, U-shaped-bottom microplate (cat no. 07-200-95) and 237.5 μl of whole blood added to each well. Final well concentrations of BYbes were 250 nm, 50 nM, 10 nm and 2 nM. Campath (clinical grade, diluted from 30 mg/ml stock to 1 mg/ml in PBS, lot number F1002H29) was used as a positive control at a final concentration of 10 μg/ml. Plates were sealed with a gas permeable adhesive seal and plate lids were replaced. Plates were then incubated for 24 hrs at 37° C. and 5% humidified CO2 in an undisturbed location.
Cytokine release was then assessed using a R&D Systems Luminex 13-plex human cytokine assay (custom selection of cytokines as follows; IL-1 RA, IL-4, IL-5, IL-6, IL-10, IL-11, IL-13, CCL2, IL-8, CXCL1, CX3CL1, GM-CSF and M-CSF). Following the 24-hour incubation, plates were spun at 1000 g for 10 mins and 50 μl of plasma was transferred to a separate plate containing 50 μl of assay diluent buffer (RD6-52 from the Luminex kit). Samples were resuspended thoroughly using a multichannel pipette and 50 μl transferred to the Luminex assay plate. Luminex assay standards were diluted 1 in 2, seven times to construct standard curves and added to the plate. 50 μl of microparticle mixture was then added to each well and plates incubated for 2 hrs at room temperature (RT) and mixed at 800 rpm. Plates were washed 3 times by adding 150 μl of wash buffer to each well then allowing the magnetic beads to bind to a BioTek ELx405 microplate washer magnet before supernatant was aspirated. 50 μl of biotin-antibody cocktail was added to each well at plates incubated for 1 hr at RT with shaking. Plates were then washed as before and a final addition of 50 μl of streptavidin-PE added to each well. Plates were incubated for 30 mins at RT with shaking before a final wash step and addition of 50 μl of wash buffer to each well. The Luminex assay plate was run using the iQUEplus flow cytometer (Sartorius). Standard curves were generated (using provided assay controls) and extrapolated cytokine values generated using Forecyt software (Sartorius). Data was then transferred to Graphpad Prism version 8.1 (Graphpad) to generate data visualisations.

Jurkat = assay: Apoptosis of cell lines: Jurkat; details: 21 hrs
Description: (§1) The following cell lines representing various leukaemia's and lymphoma's, as classified by ATCC (www.atcc.org/), were used: Jurkat—acute T-cell leukaemia; CCRF-SB—B-cell acute lymphoblastic leukaemia; MC116—B-cell undifferentiated lymphoma; Raji, Ramos—Burkitt lymphoma (rare form of B-cell non-Hodgkin lymphoma); SU-DHL-4, SU-DHL-5, SU-DHL-8, NU-DUL-1, OCI-Ly3—Diffuse large B-cell lymphoma; THP-1—acute monocytic leukaemia; and Dakiki—B cell nasopharyngeal carcinoma.
(§2) Prior to an assay being performed, 1 vial of each of the above cell lines was thawed in a 37° C. water bath and then added to 20 ml complete media (RPMI 1640+2 mM GlutaMAX+1% Pen/Strep, all previous supplied by Invitrogen, +10% Fetal Bovine Serum (FBS), Sigma Aldrich). Cells were spun (500 g, 5 min, at RT) and re-suspended in 20 ml complete media to wash and spun again. Cells were resuspended in 10 ml complete media and then counted using a ChemoMetec NucleoCounter NC-3000. 6×10^6 cells of each cell line were spun (500 g, 5 min, at RT) and re-suspended in 4.8 ml complete media. 1×10^5 cells in 80 μl were then added to each well of a Corning Costar 96-well, cell culture treated, U-shaped-bottom microplate (cat no. 07-200-95). The plate was rested in a 37° C., 5% CO2 incubator for 2 hrs
(§3) Stocks of 4133-6294 BYbe and NegCtrl BYbe at 2500 nM in complete media were prepared. In a Greiner 96-well non-binding microplate, both reagents were serially diluted in complete media 1 in 5, seven times to produce to form an 8-point dose curve. […] (final well concentrations 500-0.0064 nM) was added to the cells. Each concentration was produced in triplicate. Camptothecin (cat no. C9911-100MG, Sigma Aldrich) and Staurosporine (cat no. 56942-200UL, Sigma Aldrich) were added as positive controls of apoptosis. Both were diluted in complete media and added to the well to produce a final concentration of 5 μM. Additional positive controls included anti-thymocyte globulin (ATG, indicated by FDA for use in conditioning regimens), Rituximab (anti-CD20, indicated by FDA for Non-Hodgkin Lymphoma and Chronic Lymphocytic Leukaemia) and Campath (anti-CD52, indicated by FDA for B-cell Chronic Lymphocytic Leukaemia). Anti-thymocyte globulin, Rituximab and Campath were added to the wells to produce final concentrations of 200 μg/ml, 500 nM and 200 μg/ml, respectively. […]
(§4) Following the incubation, the plates were spun at 500 g, 5 min, RT, the buffer was aspirated with a BioTek ELx405 microplate washer, and the cells were re-suspended in FACS buffer (PBS+1% bovine serum albumin (BSA)+0.1% NaN3+2 mM EDTA, Sigma Aldrich) to wash and then re-spun and buffer was aspirated to leave the cells in 20 μl residual media. […] Cells were analysed using the Bio-Rad ZE5 Cell Analyzer. […]

Raji = assay: Apoptosis of cell lines: Raji; details: 21 hrs
Description: as §1, §2, §3, §4

Ramos = assay: Apoptosis of cell lines: Ramos; details: 21 hrs
Description: as §1, §2, §3, §4

SU-DHL-4 = assay: Apoptosis of cell lines: SU-DHL-4; details: SU-DHL-4, 21 hrs
Description: as §1, §2, §3, §4

SU-DHL-8 = assay: Apoptosis of cell lines: SU-DHL-8; details: SU-DHL-8, 21 hrs
Description: as §1, §2, §3, §4

THP-1 = assay: Apoptosis of cell lines: THP-1; details: THP-1, 21 hrs
Description: as §1, §2, §3, §4

[1] = Campath 10 μg/ml, donor #300120-1

Campath: anti-CD52, clinical grade, indicated by FDA for B-cell Chronic Lymphocytic Leukaemia; positive control [reference compound]
IL-6 level induced (Human whole blood; Campath 10 μg/ml, above PBS-treated wells): marked levels | CCL2 level induced (Human whole blood; [1]): exceeded the standard curve | IL-1 RA level induced (Human whole blood; [1]): exceeded the standard curve | IL-8 level induced (Human whole blood; [1]): exceeded the standard curve | Campath mean (%) cell reduction (Jurkat; 200 μg/ml): 5.64% | Campath mean (%) cell reduction (Raji; 200 μg/ml): 36.00% | Campath mean (%) cell reduction (Ramos; 200 μg/ml): 39.40% | Campath mean (%) cell reduction (SU-DHL-4; 200 μg/ml): 92.46% | Campath mean (%) cell reduction (SU-DHL-8; 200 μg/ml): 7.97% | Campath mean (%) cell reduction (THP-1; 200 μg/ml): 15.40%

B1: 4133-6294 BYbe: anti-CD45 BYbe (Fab-scFv): 4133 Fab HC-G4S linker-6294 scFv heavy chain paired with 4133 light chain (antibody)
heavy: QEQLVESGGGLVQPEGSLTLTCTASGFSFSGNYYMCWVRQAPGKGLEWIGCLYTGSSGSTYYASWAKGRFTISKTSSTTVTLQMTSLTAADTATYFCARDLGYEIDGYGGLWGQGTLVTVSSGQPKAPSVFPLAPCCGDTPSSTVTLGCLVKGYLPEPVTVTWNSGTLTNGVRTFPSVRQSSGLYSLSSVVSVTSSSQPVTCNVAHPATNTKVDKTVAPSTCSKPGGGGSGGGGSEVQLVESGAELARPGASVKMSCKASGYTFTSYTMHWVKQRPGQCLEWIGYINPSSGYTEYNQKFKDKTTLTADKSSSTAYLQLSSLTSEDSAVYYCARVGDGFYPSWLAYWGQGTLVTVSSGGGGSGGGGSGGGGSGGGGSDIQMTQSPKFLLVSAGDRVTITCKASQSVRNDVAWYQQKPGQSPKLLIFYASKRYTGVPDRFTGSGYGTDFTFTISTVQAEDLAVYFCQQDYSSPTTFGCGTKLEIK
light: AQVLTQTPSPVSAVVGGTVSISCQASQSVYNNNNLSWYQQKPGQPPKLLIYDASKLASGVPSRFKGSGSGTQFTLTISGVQCDDAATYYCLGGYYSSGWYFAFGGGTKVVVKRTPVAPTVLIFPPAADQVATGTVTIVCVANKYFPDVTVTWEVDGTTQTTGIENSKTPQNSADCTYNLSSTLTLTSTQYNSHKEYTCKVTQGTTSVVQSFNRGDC
induction of inflammatory cytokines (Human whole blood; 250-2 nM, compared with PBS- and NegCtrl BYbe-treated wells): little or no induction | Bottom (%) level of % cell reduction (Jurkat): 23.49% | Top (%) level of % cell reduction (Jurkat): 99.27% | Bottom (%) level of % cell reduction (Raji): 13.56% | Top (%) level of % cell reduction (Raji): 74.02% | Bottom (%) level of % cell reduction (Ramos): 1.61% | Top (%) level of % cell reduction (Ramos): 96.11% | Bottom (%) level of % cell reduction (SU-DHL-4): 16.98% | Top (%) level of % cell reduction (SU-DHL-4): 91.88% | Bottom (%) level of % cell reduction (SU-DHL-8): -2.97% | Top (%) level of % cell reduction (SU-DHL-8): 16.77% | Bottom (%) level of % cell reduction (THP-1): 8.14% | Top (%) level of % cell reduction (THP-1): 60.72%
